Test results reported in publication PMC5491343 (SLAS discovery, 2016).
Square brackets hold non-standard residues; d marks the D form. Ends that are not written are not given here. Peptide text beside a SMILES is read from it. * marks the point of attachment. X1 = CN(C)c1ccc2c(-c3ccc(C(=O)NCCCCCN4C(=O)CC(*)C4=O)cc3C(=O)[O-])c3ccc(=[N+](C)C)cc-3oc2c1; pY = N[C@@H](Cc1ccc(OP(=O)(O)O)cc1)C(=O)O

Experiments:
[1] = target: 2pY ITAM peptide ITAM (Homo sapiens) (UniProt P20963); settings: cited from earlier work
[2] = target: T1, ZAP-70 (Homo sapiens, UniProt P43403); experiment: TR-FRET ZAP-70:2pY binding / inhibition assay; settings: read-out: KD, ZAP-70 binding to AlexaFluor488-2pY
T1 sequence (P43403 1-606): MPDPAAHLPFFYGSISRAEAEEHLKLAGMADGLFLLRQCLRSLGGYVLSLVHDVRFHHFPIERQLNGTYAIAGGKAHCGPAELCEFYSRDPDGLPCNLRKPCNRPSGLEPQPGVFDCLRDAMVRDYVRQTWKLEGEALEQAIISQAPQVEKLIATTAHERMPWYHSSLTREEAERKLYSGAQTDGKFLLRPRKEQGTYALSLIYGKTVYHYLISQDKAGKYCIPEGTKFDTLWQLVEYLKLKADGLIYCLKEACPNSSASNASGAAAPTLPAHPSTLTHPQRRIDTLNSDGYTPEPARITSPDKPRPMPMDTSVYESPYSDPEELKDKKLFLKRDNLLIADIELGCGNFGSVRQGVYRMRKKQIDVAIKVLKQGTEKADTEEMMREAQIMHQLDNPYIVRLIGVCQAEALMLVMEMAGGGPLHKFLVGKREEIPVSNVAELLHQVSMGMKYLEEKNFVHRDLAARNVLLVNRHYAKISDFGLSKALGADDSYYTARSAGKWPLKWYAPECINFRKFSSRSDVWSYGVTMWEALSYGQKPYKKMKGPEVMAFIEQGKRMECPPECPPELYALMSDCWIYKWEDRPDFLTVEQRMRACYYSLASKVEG

[3] = target: T2, isolated tandem SH2 domains of ZAP-70 (Homo sapiens, UniProt P43403); experiment: Fluorescence polarization assay with the isolated tandem SH2 unit; format: binding; settings: data not shown
T2 sequence (P43403 1-259 limits assumed): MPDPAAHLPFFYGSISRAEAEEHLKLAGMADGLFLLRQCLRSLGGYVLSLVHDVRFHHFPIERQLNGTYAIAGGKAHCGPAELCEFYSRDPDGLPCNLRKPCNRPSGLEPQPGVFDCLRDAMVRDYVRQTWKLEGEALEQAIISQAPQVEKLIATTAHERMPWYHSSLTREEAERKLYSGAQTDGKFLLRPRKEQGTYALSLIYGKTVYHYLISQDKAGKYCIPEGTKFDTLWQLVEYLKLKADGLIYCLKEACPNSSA

[4] = target: ZAP-Src chimera; experiment: Fluorescence polarization 2pY binding to ZAP-Src chimera; settings: read-out: binding constant for 2pY peptide and the ZAP-Src chimera; FP, TAMRA-2pY
[5] = target: T3, ZAP-70 (zeta-associated protein of 70 kDa), construct spanning residues 1-606, wild type (UniProt P43403 1-606); experiment: fluorescence polarisation
T3 sequence (looked up): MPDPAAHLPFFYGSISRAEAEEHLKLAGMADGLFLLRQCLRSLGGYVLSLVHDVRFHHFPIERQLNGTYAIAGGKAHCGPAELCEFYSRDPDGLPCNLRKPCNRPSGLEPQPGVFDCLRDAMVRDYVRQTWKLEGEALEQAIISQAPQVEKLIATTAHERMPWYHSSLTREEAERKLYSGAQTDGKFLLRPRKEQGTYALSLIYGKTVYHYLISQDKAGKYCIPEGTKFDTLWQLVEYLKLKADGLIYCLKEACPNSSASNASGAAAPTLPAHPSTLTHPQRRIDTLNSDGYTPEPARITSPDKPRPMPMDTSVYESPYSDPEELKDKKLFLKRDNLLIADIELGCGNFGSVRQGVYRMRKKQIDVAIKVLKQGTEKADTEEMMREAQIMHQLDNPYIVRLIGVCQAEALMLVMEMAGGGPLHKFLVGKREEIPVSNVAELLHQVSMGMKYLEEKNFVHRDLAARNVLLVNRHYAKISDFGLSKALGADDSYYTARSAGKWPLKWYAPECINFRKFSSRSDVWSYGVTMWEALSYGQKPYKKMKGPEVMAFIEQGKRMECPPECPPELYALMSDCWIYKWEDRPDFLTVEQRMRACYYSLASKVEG

[6] = target: T4, ZAP-70 Y315F/Y319F (UniProt P43403 1-619, Y315F | Y319F); experiment: fluorescence polarisation
T4 sequence (looked up): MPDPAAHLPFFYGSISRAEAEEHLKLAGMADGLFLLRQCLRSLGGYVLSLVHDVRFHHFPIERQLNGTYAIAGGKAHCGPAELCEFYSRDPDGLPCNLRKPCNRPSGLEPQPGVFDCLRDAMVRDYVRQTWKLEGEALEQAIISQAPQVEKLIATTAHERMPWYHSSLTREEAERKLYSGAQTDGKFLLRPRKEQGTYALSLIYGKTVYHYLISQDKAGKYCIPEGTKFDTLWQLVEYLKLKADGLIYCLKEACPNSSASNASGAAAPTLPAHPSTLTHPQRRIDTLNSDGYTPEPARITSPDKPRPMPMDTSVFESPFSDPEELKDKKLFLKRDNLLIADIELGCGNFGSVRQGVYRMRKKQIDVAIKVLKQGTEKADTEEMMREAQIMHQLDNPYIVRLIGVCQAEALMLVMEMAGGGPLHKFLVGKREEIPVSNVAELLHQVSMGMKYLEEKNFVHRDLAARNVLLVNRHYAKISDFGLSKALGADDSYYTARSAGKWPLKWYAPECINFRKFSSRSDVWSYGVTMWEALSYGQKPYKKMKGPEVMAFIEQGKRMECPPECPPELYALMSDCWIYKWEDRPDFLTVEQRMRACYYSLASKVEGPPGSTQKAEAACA

Sequence of ZAP-70 (from UniProt P43403) (P43403 whole entry): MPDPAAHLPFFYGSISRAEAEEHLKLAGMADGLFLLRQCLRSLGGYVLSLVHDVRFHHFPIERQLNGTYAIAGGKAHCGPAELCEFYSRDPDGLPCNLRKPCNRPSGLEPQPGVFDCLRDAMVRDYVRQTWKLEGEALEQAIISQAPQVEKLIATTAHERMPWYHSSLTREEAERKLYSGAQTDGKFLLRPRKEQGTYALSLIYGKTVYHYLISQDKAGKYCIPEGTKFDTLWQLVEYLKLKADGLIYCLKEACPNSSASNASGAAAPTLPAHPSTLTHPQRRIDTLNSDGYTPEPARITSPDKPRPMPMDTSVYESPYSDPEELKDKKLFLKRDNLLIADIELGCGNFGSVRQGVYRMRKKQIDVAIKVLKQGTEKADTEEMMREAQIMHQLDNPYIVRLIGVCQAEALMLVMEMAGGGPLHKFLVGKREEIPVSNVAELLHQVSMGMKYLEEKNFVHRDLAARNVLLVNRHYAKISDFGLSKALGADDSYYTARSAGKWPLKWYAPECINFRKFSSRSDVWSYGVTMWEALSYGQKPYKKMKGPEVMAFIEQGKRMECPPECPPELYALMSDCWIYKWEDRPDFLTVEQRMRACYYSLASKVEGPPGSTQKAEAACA

In the case of ZAP-70 (from UniProt P43403), the Kd [1] is listed as 76.6 nM.

For “2pY: fluorescently labeled doubly phosphorylated ITAM peptide of the ζ chain (CGNQLpYNELNLGRREEpYDVLD) (C(TAMRA C5 maleimide)GNQL[pY]NELNLGRREE[pY]DVLD)”, the Kd [2] was 55.4 ± 7.1 nM and the “dissociation constant, tandem SH2 unit and 2pY peptide” value [3] was “nearly identical to the Src-ZAP fusion protein”.

`CC(C)C[C@H](NC(=O)[C@H](CC(N)=O)NC(=O)[C@H](CC(C)C)NC(=O)[C@H](CCC(=O)O)NC(=O)[C@H](CC(N)=O)NC(=O)[C@H](Cc1ccc(OP(=O)(O)O)cc1)NC(=O)[C@H](CC(C)C)NC(=O)[C@H](CCC(N)=O)NC(=O)[C@H](CC(N)=O)NC(=O)CNC(=O)[C@@H](N)CSC1CC(=O)N(CCCCCNC(=O)c2ccc(-c3c4ccc(=[N+](C)C)cc-4oc4cc(N(C)C)ccc34)c(C(=O)[O-])c2)C1=O)C(=O)NCC(=O)N[C@@H](CCCNC(=N)N)C(=O)N[C@@H](CCCNC(=N)N)C(=O)N[C@@H](CCC(=O)O)C(=O)N[C@@H](CCC(=O)O)C(=O)N[C@@H](Cc1ccc(OP(=O)(O)O)cc1)C(=O)N[C@@H](CC(=O)O)C(=O)N[C@H](C(=O)N[C@@H](CC(C)C)C(=O)N[C@@H](CC(=O)O)C(=O)O)C(C)C` (stereo partly drawn) [TAMRA-2pY] (H-C(X1)GNQL[pY]NELNLGRREE[pY]DVLD-OH; N-terminus and C-terminus assumed) showed a Kd [4] of 15.8 ± 1.3 nM.

Molecule C(TAMRA C5 maleimide)GNQL[pY]NELNLGRREE[pY]DVLD has a Kd [5] of 45.7 ± 4.7 nM and a Kd [6] of 82.2 ± 5.6 nM.
